Laboratory results taken from PMC7797080 (Nucleic Acids Research, 2020).

Molecular target: the molecule itself
Test: SEC

B1: PSEUDOURIDINE KINASE from Arabidopsis (AtPUKI), native, tag-free (enzyme, Arabidopsis thaliana)
chain: GGGSMEPVIIGALILDVHAKPSTTPISGTTVPGQVLFAPGGVARNVADCIFKLGITPFMIGTLGLDGPANVLLKEWKLSMKGILRREDISTPIVSLVYDTNGEVAAGVAGVDAVENFLTPEWIQRFEYNISSARLLMVDANLSSLALEASCKLAAESSVPVWFEPVSVTKSQRIASIAKYVTIVSPNQDELIAMANALCAKNLFHPFRSDENKLSIEDMFRALKPAILVLLKNGVKVVIVTLGSNGALLCSKGNPKKALNIDRKFLRSGEVFKRVQSVCSPNRFSELGSNRSPSLFAMHFPTIPAKVKKLTGAGDCLVGGTVASLSDGLDLIQSLAVGIASAKAAVESDDNVPPEFKLDLISGDAELVYNGAKMLMVHQSML
- stoichiometry N: 2
